Results as given in US20170165342A1 (VIRGINIA COMMONWEALTH UNIVERSITY, published 2017).
Several values for one entry are separate records, joined by “and”; a condition that tells them apart may be missing. Equal values may be shown once.

T1: sLe^x-capped P-selectin glycoprotein ligand-1 (PSGL-1) (UniProt Q14242 42-412, capped with the sialyl Lewis x (sLe^x) O-glycan)
T1 sequence: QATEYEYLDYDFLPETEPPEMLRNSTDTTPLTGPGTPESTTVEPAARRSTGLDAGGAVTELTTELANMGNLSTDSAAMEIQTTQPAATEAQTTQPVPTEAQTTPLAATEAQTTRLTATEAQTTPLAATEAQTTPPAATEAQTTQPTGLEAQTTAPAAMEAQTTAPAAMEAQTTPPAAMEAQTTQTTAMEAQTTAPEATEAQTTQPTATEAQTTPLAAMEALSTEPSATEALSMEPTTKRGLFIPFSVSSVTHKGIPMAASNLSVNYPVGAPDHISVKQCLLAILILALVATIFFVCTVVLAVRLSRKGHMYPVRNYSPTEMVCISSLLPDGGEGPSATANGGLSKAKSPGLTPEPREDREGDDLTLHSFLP

B1: OmpA (outer membrane protein A) on the surface of A. phagocytophilum DC organisms (other)
chain: CGTLLPDSNVGVGRHDLGSHRSVAFAKKVEKVYFDIGKYDLKGPGKKVILELVEQLRQDDSMYLVVIGHADATGTEEYSLALGEKRANAVKQFIIGCDKSLAPRVTTQSRGKAEPEVLVYSTDAQEVEKANAQNRRAVIVVEFAHIPRSGVADMHAPVASSITSENSNASAEGEDMEASEFSSAIAN

What was measured:
[1] = target: sLe^x-capped P-selectin glycoprotein ligand-1 (PSGL-1) (UniProt Q14242); test: cell-based or functional assay
[2] = target: T1, sLe^x-capped P-selectin glycoprotein …; test: cell-based or functional assay

| Molecule | numbers of bound DC organisms per PSGL-1 CHO cell after incubating PSGL-1 CHO cells with KPL-1 (fold reduction) [1] | bacterial binding to PSGL-1 CHO cells after pretreating bacteria with anti-OmpA [2] [fold reduction] |
| --- | --- | --- |
| KPL-1, PSGL-1 N-terminus-specific antibody | 2 and 3 |  |
| B1 |  | ~2 |
